# According to patent US20260209293A1 (Novo Nordisk, published 2026):
# *1 amine or outer side, *2 acyl side, *3 side chain or, on linkers, in order; H or OH if unused. The star is where a group is joined. C20 diacid = O=C(O)CCCCCCCCCCCCCCCCCCC(=O)*; C18 diacid = O=C(O)CCCCCCCCCCCCCCCCC(=O)*; γGlu = O=C(O)[C@H](CCC(=O)[*:2])N[*:1]
# T1: human amylin-3(a) receptor (human, UniProt P30988 25-474; O60896 24-148)
# T1 sequence (looked up) 1: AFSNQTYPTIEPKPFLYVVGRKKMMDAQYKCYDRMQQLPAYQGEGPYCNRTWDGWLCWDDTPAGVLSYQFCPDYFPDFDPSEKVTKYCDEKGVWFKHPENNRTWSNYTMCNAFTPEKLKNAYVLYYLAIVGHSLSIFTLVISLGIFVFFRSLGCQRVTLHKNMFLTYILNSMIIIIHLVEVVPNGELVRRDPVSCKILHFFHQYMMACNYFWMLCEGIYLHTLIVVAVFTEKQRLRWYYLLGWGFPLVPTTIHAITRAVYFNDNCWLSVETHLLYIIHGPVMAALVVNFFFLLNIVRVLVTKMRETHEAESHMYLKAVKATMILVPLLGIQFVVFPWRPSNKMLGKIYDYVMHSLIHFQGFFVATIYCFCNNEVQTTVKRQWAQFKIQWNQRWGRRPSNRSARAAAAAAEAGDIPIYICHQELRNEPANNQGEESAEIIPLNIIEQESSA
# T1 sequence (looked up) 2: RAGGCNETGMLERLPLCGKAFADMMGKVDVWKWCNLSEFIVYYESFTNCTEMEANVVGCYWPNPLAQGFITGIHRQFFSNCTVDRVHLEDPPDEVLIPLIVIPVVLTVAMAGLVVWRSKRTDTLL
# T2: human calcitonin receptor (a) (human, UniProt P30988 25-474)
# T2 sequence (looked up): T1 sequence (looked up) 1
# B1: N^1-[(4S)-4-carboxy-4-[[(4S)-4-carboxy-4-(17-carboxyheptadecanoylamino)butanoyl]amino]butanoyl]-[Ala1,Gly2,Ser3,Leu4,Ser5,Ala7,Gln8,Glu14,His17,Pro25,Pro28,Pro2 … (peptide)
# peptide: {C18 diacid-γGlu-γGlu}-AGSLSTAQTQRLAEFLHHFGPILPPTDVGSETP-NH2
# SMILES: CC[C@H](C)[C@H](NC(=O)[C@@H]1CCCN1C(=O)CNC(=O)[C@H](Cc1ccccc1)NC(=O)[C@H](Cc1c[nH]cn1)NC(=O)[C@H](Cc1c[nH]cn1)NC(=O)[C@H](CC(C)C)NC(=O)[C@H](Cc1ccccc1)NC(=O)[C@H](CCC(=O)O)NC(=O)[C@H](C)NC(=O)[C@H](CC(C)C)NC(=O)[C@H](CCCNC(=N)N)NC(=O)[C@H](CCC(N)=O)NC(=O)[C@@H](NC(=O)[C@H](CCC(N)=O)NC(=O)[C@H](C)NC(=O)[C@@H](NC(=O)[C@H](CO)NC(=O)[C@H](CC(C)C)NC(=O)[C@H](CO)NC(=O)CNC(=O)[C@H](C)NC(=O)CC[C@H](NC(=O)CC[C@H](NC(=O)CCCCCCCCCCCCCCCCC(=O)O)C(=O)O)C(=O)O)[C@@H](C)O)[C@@H](C)O)C(=O)N[C@@H](CC(C)C)C(=O)N1CCC[C@H]1C(=O)N1CCC[C@H]1C(=O)N[C@H](C(=O)N[C@@H](CC(=O)O)C(=O)N[C@H](C(=O)NCC(=O)N[C@@H](CO)C(=O)N[C@@H](CCC(=O)O)C(=O)N[C@H](C(=O)N1CCC[C@H]1C(N)=O)[C@@H](C)O)C(C)C)[C@@H](C)O
# B2: N^1-[(4S)-4-carboxy-4-(17-carboxyheptadecanoylamino)butanoyl]-[Ala1,Ser2,His3,Leu4,Ser5,Ala7,Gln8,Glu14,His17,Glu21,Pro22,Pro27,Glu31,Pro34,Glu35,Pro37]-human … (peptide)
# peptide: {C18 diacid-γGlu}-ASHLSTAQTQRLAEFLHHSSEPFGAIPSSTEVGPETP-NH2
# SMILES: CC[C@H](C)[C@H](NC(=O)[C@H](C)NC(=O)CNC(=O)[C@H](Cc1ccccc1)NC(=O)[C@@H]1CCCN1C(=O)[C@H](CCC(=O)O)NC(=O)[C@H](CO)NC(=O)[C@H](CO)NC(=O)[C@H](Cc1c[nH]cn1)NC(=O)[C@H](Cc1c[nH]cn1)NC(=O)[C@H](CC(C)C)NC(=O)[C@H](Cc1ccccc1)NC(=O)[C@H](CCC(=O)O)NC(=O)[C@H](C)NC(=O)[C@H](CC(C)C)NC(=O)[C@H](CCCNC(=N)N)NC(=O)[C@H](CCC(N)=O)NC(=O)[C@@H](NC(=O)[C@H](CCC(N)=O)NC(=O)[C@H](C)NC(=O)[C@@H](NC(=O)[C@H](CO)NC(=O)[C@H](CC(C)C)NC(=O)[C@H](Cc1c[nH]cn1)NC(=O)[C@H](CO)NC(=O)[C@H](C)NC(=O)CC[C@H](NC(=O)CCCCCCCCCCCCCCCCC(=O)O)C(=O)O)[C@@H](C)O)[C@@H](C)O)C(=O)N1CCC[C@H]1C(=O)N[C@@H](CO)C(=O)N[C@@H](CO)C(=O)N[C@H](C(=O)N[C@@H](CCC(=O)O)C(=O)N[C@H](C(=O)NCC(=O)N1CCC[C@H]1C(=O)N[C@@H](CCC(=O)O)C(=O)N[C@H](C(=O)N1CCC[C@H]1C(N)=O)[C@@H](C)O)C(C)C)[C@@H](C)O
# B3: N^1-[(4S)-4-carboxy-4-[[(4S)-4-carboxy-4-(17-carboxyheptadecanoylamino)butanoyl]amino]butanoyl]-[Ala1,Ser2,His3,Leu4,Ser5,Ala7,Gln8,Glu14,His17,Pro25,Pro28,Pro2 … (peptide)
# peptide: {C18 diacid-γGlu-γGlu}-ASHLSTAQTQRLAEFLHHFGPILPPTDVGSETP-NH2
# SMILES: CC[C@H](C)[C@H](NC(=O)[C@@H]1CCCN1C(=O)CNC(=O)[C@H](Cc1ccccc1)NC(=O)[C@H](Cc1c[nH]cn1)NC(=O)[C@H](Cc1c[nH]cn1)NC(=O)[C@H](CC(C)C)NC(=O)[C@H](Cc1ccccc1)NC(=O)[C@H](CCC(=O)O)NC(=O)[C@H](C)NC(=O)[C@H](CC(C)C)NC(=O)[C@H](CCCNC(=N)N)NC(=O)[C@H](CCC(N)=O)NC(=O)[C@@H](NC(=O)[C@H](CCC(N)=O)NC(=O)[C@H](C)NC(=O)[C@@H](NC(=O)[C@H](CO)NC(=O)[C@H](CC(C)C)NC(=O)[C@H](Cc1c[nH]cn1)NC(=O)[C@H](CO)NC(=O)[C@H](C)NC(=O)CC[C@H](NC(=O)CC[C@H](NC(=O)CCCCCCCCCCCCCCCCC(=O)O)C(=O)O)C(=O)O)[C@@H](C)O)[C@@H](C)O)C(=O)N[C@@H](CC(C)C)C(=O)N1CCC[C@H]1C(=O)N1CCC[C@H]1C(=O)N[C@H](C(=O)N[C@@H](CC(=O)O)C(=O)N[C@H](C(=O)NCC(=O)N[C@@H](CO)C(=O)N[C@@H](CCC(=O)O)C(=O)N[C@H](C(=O)N1CCC[C@H]1C(N)=O)[C@@H](C)O)C(C)C)[C@@H](C)O
# B4: N^1-[(4S)-4-carboxy-4-(17-carboxyheptadecanoylamino)butanoyl]-[Ala1,Ser2,His3,Leu4,Ser5,Ala7,Gln8,Glu14,His17,Pro25,Pro28,Pro29,Asp31,Glu35,Pro37],des-(19-22)-h … (peptide)
# peptide: {C18 diacid-γGlu}-ASHLSTAQTQRLAEFLHHFGPILPPTDVGSETP-NH2
# SMILES: CC[C@H](C)[C@H](NC(=O)[C@@H]1CCCN1C(=O)CNC(=O)[C@H](Cc1ccccc1)NC(=O)[C@H](Cc1c[nH]cn1)NC(=O)[C@H](Cc1c[nH]cn1)NC(=O)[C@H](CC(C)C)NC(=O)[C@H](Cc1ccccc1)NC(=O)[C@H](CCC(=O)O)NC(=O)[C@H](C)NC(=O)[C@H](CC(C)C)NC(=O)[C@H](CCCNC(=N)N)NC(=O)[C@H](CCC(N)=O)NC(=O)[C@@H](NC(=O)[C@H](CCC(N)=O)NC(=O)[C@H](C)NC(=O)[C@@H](NC(=O)[C@H](CO)NC(=O)[C@H](CC(C)C)NC(=O)[C@H](Cc1c[nH]cn1)NC(=O)[C@H](CO)NC(=O)[C@H](C)NC(=O)CC[C@H](NC(=O)CCCCCCCCCCCCCCCCC(=O)O)C(=O)O)[C@@H](C)O)[C@@H](C)O)C(=O)N[C@@H](CC(C)C)C(=O)N1CCC[C@H]1C(=O)N1CCC[C@H]1C(=O)N[C@H](C(=O)N[C@@H](CC(=O)O)C(=O)N[C@H](C(=O)NCC(=O)N[C@@H](CO)C(=O)N[C@@H](CCC(=O)O)C(=O)N[C@H](C(=O)N1CCC[C@H]1C(N)=O)[C@@H](C)O)C(C)C)[C@@H](C)O
# B5: N^1-[(4S)-4-carboxy-4-(19-carboxynonadecanoylamino)butanoyl]-[Ala1,Ser2,His3,Leu4,Ser5,Ala7,Gln8,Glu14,His17,Pro25,Pro28,Pro29,Asp31,Glu35,Pro37],des-(19-22)-hu … (peptide)
# peptide: {C20 diacid-γGlu}-ASHLSTAQTQRLAEFLHHFGPILPPTDVGSETP-NH2
# SMILES: CC[C@H](C)[C@H](NC(=O)[C@@H]1CCCN1C(=O)CNC(=O)[C@H](Cc1ccccc1)NC(=O)[C@H](Cc1c[nH]cn1)NC(=O)[C@H](Cc1c[nH]cn1)NC(=O)[C@H](CC(C)C)NC(=O)[C@H](Cc1ccccc1)NC(=O)[C@H](CCC(=O)O)NC(=O)[C@H](C)NC(=O)[C@H](CC(C)C)NC(=O)[C@H](CCCNC(=N)N)NC(=O)[C@H](CCC(N)=O)NC(=O)[C@@H](NC(=O)[C@H](CCC(N)=O)NC(=O)[C@H](C)NC(=O)[C@@H](NC(=O)[C@H](CO)NC(=O)[C@H](CC(C)C)NC(=O)[C@H](Cc1c[nH]cn1)NC(=O)[C@H](CO)NC(=O)[C@H](C)NC(=O)CC[C@H](NC(=O)CCCCCCCCCCCCCCCCCCC(=O)O)C(=O)O)[C@@H](C)O)[C@@H](C)O)C(=O)N[C@@H](CC(C)C)C(=O)N1CCC[C@H]1C(=O)N1CCC[C@H]1C(=O)N[C@H](C(=O)N[C@@H](CC(=O)O)C(=O)N[C@H](C(=O)NCC(=O)N[C@@H](CO)C(=O)N[C@@H](CCC(=O)O)C(=O)N[C@H](C(=O)N1CCC[C@H]1C(N)=O)[C@@H](C)O)C(C)C)[C@@H](C)O
# B6: N^1-[(4S)-4-carboxy-4-(17-carboxyheptadecanoylamino)butanoyl]-[Ala1,Ser2,Glu3, Leu4, Ser5,Ala7,Gln8,Glu14, His17, Pro25, Pro28, Pro29,Asp31,Glu35, … (peptide)
# peptide: {C18 diacid-γGlu}-ASELSTAQTQRLAEFLHHFGPILPPTDVGSETP-NH2
# SMILES: CC[C@H](C)[C@H](NC(=O)[C@@H]1CCCN1C(=O)CNC(=O)[C@H](Cc1ccccc1)NC(=O)[C@H](Cc1c[nH]cn1)NC(=O)[C@H](Cc1c[nH]cn1)NC(=O)[C@H](CC(C)C)NC(=O)[C@H](Cc1ccccc1)NC(=O)[C@H](CCC(=O)O)NC(=O)[C@H](C)NC(=O)[C@H](CC(C)C)NC(=O)[C@H](CCCNC(=N)N)NC(=O)[C@H](CCC(N)=O)NC(=O)[C@@H](NC(=O)[C@H](CCC(N)=O)NC(=O)[C@H](C)NC(=O)[C@@H](NC(=O)[C@H](CO)NC(=O)[C@H](CC(C)C)NC(=O)[C@H](CCC(=O)O)NC(=O)[C@H](CO)NC(=O)[C@H](C)NC(=O)CC[C@H](NC(=O)CCCCCCCCCCCCCCCCC(=O)O)C(=O)O)[C@@H](C)O)[C@@H](C)O)C(=O)N[C@@H](CC(C)C)C(=O)N1CCC[C@H]1C(=O)N1CCC[C@H]1C(=O)N[C@H](C(=O)N[C@@H](CC(=O)O)C(=O)N[C@H](C(=O)NCC(=O)N[C@@H](CO)C(=O)N[C@@H](CCC(=O)O)C(=O)N[C@H](C(=O)N1CCC[C@H]1C(N)=O)[C@@H](C)O)C(C)C)[C@@H](C)O
# Molecular target: T1, human amylin-3(a) receptor
# Assay: cell-based or functional assay
row,Binder,"hAmyR3 potency, EC50 (pM); CRE-luciferase reporter in BHK cells [pM]"
1,B1,2.37
2,B2,2.68
3,B3,2.03
4,B4,2.06
5,B5,1.12
6,B6,5.2

# Molecular target: T2, human calcitonin receptor (a)
# Assay: cell-based or functional assay
row,Binder,"hCalcR potency, EC50 (pM); CRE-luciferase reporter in BHK cells [pM]"
1,B1,2.07
2,B2,1.78
3,B3,2.13
4,B4,1.72
5,B5,1.44
6,B6,3.08
